Source: PMC10351450 (Autophagy, 2023)

Target: Oligomeric recombinant human Aβ1-42 (human, UniProt P05067)
Assay: co-IP

B1: ATP6V0C subunit of V-ATPase from mouse brain (natural protein)
chain: MADIKNNPEYSSFFGVMGASSAMVFSAMGAAYGTAKSGTGIAAMSVMRPELIMKSIIPVVMAGIIAIYGLVVAVLIANSLTDGITLYRSFLQLGAGLSVGLSGLAAGFAIGIVGDAGVRGTAQQPRLFVGMILILIFAEVLGLYGLIVALILSTK
  binding result: binds
